Biological target: CD3 on human T cells (H9 cells, ATCC HTB-176) (human)
Test: flow cytometry on H9 cells, PE anti-human IgG alone (no primary antibody), negative control

Sequence of CD3 on human T cells (H9 cells, ATCC HTB-176) (human) (P07766 23-207, chain 1 of 3): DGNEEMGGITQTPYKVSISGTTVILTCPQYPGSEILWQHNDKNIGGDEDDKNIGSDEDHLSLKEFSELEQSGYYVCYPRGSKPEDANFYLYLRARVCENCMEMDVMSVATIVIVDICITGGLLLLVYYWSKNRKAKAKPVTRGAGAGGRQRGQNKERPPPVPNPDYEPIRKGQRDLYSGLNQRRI
Sequence of CD3 on human T cells (H9 cells, ATCC HTB-176) (human) (P04234 22-171, chain 2 of 3, further chain): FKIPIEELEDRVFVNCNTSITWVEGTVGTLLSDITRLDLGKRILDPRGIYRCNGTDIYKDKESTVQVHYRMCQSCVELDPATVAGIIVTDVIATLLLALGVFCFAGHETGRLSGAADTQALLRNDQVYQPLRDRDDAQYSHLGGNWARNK
Sequence of CD3 on human T cells (H9 cells, ATCC HTB-176) (human) (P09693 23-182, chain 3 of 3, further chain): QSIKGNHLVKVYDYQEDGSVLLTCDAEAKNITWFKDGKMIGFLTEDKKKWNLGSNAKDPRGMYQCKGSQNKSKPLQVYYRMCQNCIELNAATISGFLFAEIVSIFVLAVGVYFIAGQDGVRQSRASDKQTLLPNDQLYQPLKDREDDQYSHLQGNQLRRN

## a-HuIgG PE (antibody)
  Mean : PE-A: 138

— patent publication US20200317779A1
